Test results reported in paper PMC11938383, “Antibodies targeting ADAM17 reverse neurite outgrowth inhibition by myelin-associated inhibitors” (Life Science Alliance, 2025).
Blank lines part the entries; values can stand above or below the molecule they belong to.

Experiments:
[1] = biological target: neuron-myelin 5-mer signaling complex (NgR1, Lingo-1-Fc, p75, MAG, GT1b-Na) (mouse | human) (UniProt Q9D1T0); test: BLI; Blitz (Forte Bio); 5-mer complex (via Lingo-Fc) or p75-Fc loaded at 50 μg/ml on protein A sensors; ADAM17 ECD (E406A) or D+C in solution; HBS (20 mM Hepes, 150 mM NaCl pH 7.4); apparent KD
[2] = biological target: p75-Fc (human) (UniProt P08138); test: as above
[3] = biological target: T1, neuronal receptor/co-receptor/p75 complex (Lingo-1-Fc, NgR1, p75, formed with GT1b-Na) (mouse | human, UniProt Q9D1T0 35-516; Q9BZR6 30-430; P08138 31-210); test: pull-down; Lingo-1-Fc as bait on protein A-Sepharose; untagged NgR1, p75 (31-210) and MAG as prey; NgR1 and p75 pre-incubated with GT1b-Na (molar ratio 1:10), with or without GT1b-Na; 10 mM Hepes pH 7.4, 150 mM NaCl, 0.05% Triton-X100; 25°C, 1 h; two washes; SDS-PAGE; conditions: both partners purified
T1 construct: Lingo-1, mouse, residues 35-516; NgR1, human, residues 30-430; p75, human, residues 31-210 (the version used in the pull-down assays); also called NgR1, Lingo-1, p75 complex; neuronal complex; source: assembled from purified HEK293 proteins on protein A-Sepharose in the presence of GT1b-Na; not shown: Fc, C-terminal, kept; Fc, C-terminal, cleaved; copies: + +
T1 sequence (looked up) 1: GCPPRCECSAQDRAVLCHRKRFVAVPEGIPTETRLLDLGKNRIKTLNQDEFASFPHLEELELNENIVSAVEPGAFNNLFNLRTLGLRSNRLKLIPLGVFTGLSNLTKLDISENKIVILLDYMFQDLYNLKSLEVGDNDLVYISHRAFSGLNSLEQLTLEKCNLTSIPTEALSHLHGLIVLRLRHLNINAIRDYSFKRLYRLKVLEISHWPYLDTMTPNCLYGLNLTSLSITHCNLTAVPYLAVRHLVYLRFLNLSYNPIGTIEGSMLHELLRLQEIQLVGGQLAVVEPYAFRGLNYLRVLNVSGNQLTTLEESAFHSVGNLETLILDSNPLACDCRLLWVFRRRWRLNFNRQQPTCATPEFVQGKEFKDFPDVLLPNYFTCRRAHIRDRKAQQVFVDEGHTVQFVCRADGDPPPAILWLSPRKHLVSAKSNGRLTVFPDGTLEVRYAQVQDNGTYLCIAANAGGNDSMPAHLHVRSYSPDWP
T1 sequence (looked up) 2: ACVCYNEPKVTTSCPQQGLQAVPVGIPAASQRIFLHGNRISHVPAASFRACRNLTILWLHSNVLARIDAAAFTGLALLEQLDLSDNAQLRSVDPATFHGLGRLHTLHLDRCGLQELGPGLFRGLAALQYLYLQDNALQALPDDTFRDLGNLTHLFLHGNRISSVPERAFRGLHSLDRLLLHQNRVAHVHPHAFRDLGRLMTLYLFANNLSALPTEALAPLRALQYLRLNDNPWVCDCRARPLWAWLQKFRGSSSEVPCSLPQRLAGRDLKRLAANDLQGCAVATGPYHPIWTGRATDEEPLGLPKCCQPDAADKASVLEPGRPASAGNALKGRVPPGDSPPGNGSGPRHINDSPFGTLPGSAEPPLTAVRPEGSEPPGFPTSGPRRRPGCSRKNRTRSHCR
T1 sequence (looked up) 3: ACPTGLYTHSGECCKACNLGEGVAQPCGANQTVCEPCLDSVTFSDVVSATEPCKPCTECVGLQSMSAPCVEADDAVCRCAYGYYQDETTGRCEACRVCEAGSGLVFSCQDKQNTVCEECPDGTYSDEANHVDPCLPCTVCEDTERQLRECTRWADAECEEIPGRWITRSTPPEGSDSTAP

[4] = biological target: ADAM17 ectodomain (ECD), residues 215-650, active-site mutant E406A (human, UniProt P78536 215-650, E406A); test: BLI
[5] = biological target: the molecule itself; test: SEC; individual proteins (Lingo-1, NgR1, p75 31-250) run alone on the SD-200 column, in the presence of GT1b-Na

Molecule: ADAM17 D+C (disintegrin + cysteine-rich domain region) (from UniProt P78536 474-646) (domain or fragment)
- Kd [1]: 350 nM
- Kd [2]: 350 nM

B3: p75 ectodomain (residues 31-250) (domain or fragment, human, UniProt P08138 31-250, looked up)
chain: ACPTGLYTHSGECCKACNLGEGVAQPCGANQTVCEPCLDSVTFSDVVSATEPCKPCTECVGLQSMSAPCVEADDAVCRCAYGYYQDETTGRCEACRVCEAGSGLVFSCQDKQNTVCEECPDGTYSDEANHVDPCLPCTVCEDTERQLRECTRWADAECEEIPGRWITRSTPPEGSDSTAPSTQEPEAPPEQDLIASTVAGVVTTVMGSSQPVVTRGTTDN
notes: p75 (p75 NGF receptor), human, entire ectodomain, residues 31-250; Used in size-exclusion chromatography; migrates as an apparent dimer; One sentence of the methods prints 21-250 for this construct; also called longer version of p75; source: HEK293, purified (protein A Sepharose, size-exclusion on SD-200)
- stoichiometry N [5]: 2

B4: Lingo-1 ectodomain (35-516) (domain or fragment, mouse, UniProt Q9D1T0 35-516, looked up)
chain: GCPPRCECSAQDRAVLCHRKRFVAVPEGIPTETRLLDLGKNRIKTLNQDEFASFPHLEELELNENIVSAVEPGAFNNLFNLRTLGLRSNRLKLIPLGVFTGLSNLTKLDISENKIVILLDYMFQDLYNLKSLEVGDNDLVYISHRAFSGLNSLEQLTLEKCNLTSIPTEALSHLHGLIVLRLRHLNINAIRDYSFKRLYRLKVLEISHWPYLDTMTPNCLYGLNLTSLSITHCNLTAVPYLAVRHLVYLRFLNLSYNPIGTIEGSMLHELLRLQEIQLVGGQLAVVEPYAFRGLNYLRVLNVSGNQLTTLEESAFHSVGNLETLILDSNPLACDCRLLWVFRRRWRLNFNRQQPTCATPEFVQGKEFKDFPDVLLPNYFTCRRAHIRDRKAQQVFVDEGHTVQFVCRADGDPPPAILWLSPRKHLVSAKSNGRLTVFPDGTLEVRYAQVQDNGTYLCIAANAGGNDSMPAHLHVRSYSPDWP
notes: Lingo-1 (LINGO-1), mouse, ectodomain, residues 35-516; Used in size-exclusion chromatography; It migrates as a tetramer; source: HEK293, purified (protein A Sepharose, size-exclusion on SD-200)
- stoichiometry N [5]: 4

Further lines, results first:

- binding result [3]: binds
B1: MAG (residues 22-504) (domain or fragment, human, UniProt P20916 22-504, looked up)
chain: WGAWMPSSISAFEGTCVSIPCRFDFPDELRPAVVHGVWYFNSPYPKNYPPVVFKSRTQVVHESFQGRSRLLGDLGLRNCTLLLSNVSPELGGKYYFRGDLGGYNQYTFSEHSVLDIVNTPNIVVPPEVVAGTEVEVSCMVPDNCPELRPELSWLGHEGLGEPAVLGRLREDEGTWVQVSLLHFVPTREANGHRLGCQASFPNTTLQFEGYASMDVKYPPVIVEMNSSVEAIEGSHVSLLCGADSNPPPLLTWMRDGTVLREAVAESLLLELEEVTPAEDGVYACLAENAYGQDNRTVGLSVMYAPWKPTVNGTMVAVEGETVSILCSTQSNPDPILTIFKEKQILSTVIYESELQLELPAVSPEDDGEYWCVAENQYGQRATAFNLSVEFAPVLLLESHCAAARDTVQCLCVVKSNPEPSVAFELPSRNVTVNESEREFVYSERSGLVLTSILTLRGQAQAPPRVICTARNLYGAKSLELPFQ
notes: myelin-associated glycoprotein (MAG), human, residues 22-504; also called myelin-associated glycoprotein; source: HEK293, purified (protein A Sepharose, size-exclusion on SD-200); not shown: Fc, C-terminal, cleaved

- Kd [4]: > 10000 nM
B2: p75-Fc (Fc fusion)
chain: ACPTGLYTHSGECCKACNLGEGVAQPCGANQTVCEPCLDSVTFSDVVSATEPCKPCTECVGLQSMSAPCVEADDAVCRCAYGYYQDETTGRCEACRVCEAGSGLVFSCQDKQNTVCEECPDGTYSDEANHVDPCLPCTVCEDTERQLRECTRWADAECEEIPGRWITRSTPPEGSDSTAP
